Test results as given in the DeepSol protein solubility set.

Assay: soluble on expression in E. coli; label from the status in PepcDB or PDB records
In the case of “MRRTTRYPVSGESSLWNVYKTVSFWKVMKNFIIIQIARYTPFLSVKNWLYRTFLRMKVGKKTSFALMVMPDIMFPEKITVGDNSIIGYNTTLLAHEYLIREYRLGEIVIGNEVMIGANTTILPGVRIGDGAIVSAGTLVHKDVPSGAFVGGNPMRVIYTKEQMEAREGSY”, the “soluble on expression in E. coli” value is reported as “not soluble”.
In the case of “MSERPVHEYIKELSEALVQLSDKVLQNFNEALYAVTHKDVQSARKIRIVDDEIDQTEVKLEERCLAFLALQQPVARDLRTMVTIIKINDDLERIGDLAVHIIERMPALGHEVMERYQFEKMGNLSATMVRKAIEAFVTRDRLLADNVCAMDEDVDAMHRMIFKKVADAMKACNTDTEQLLAVLSVSRYIERMADHATRIAREVIYLVTGEIVRHSDDTFEKLIQSLKD”, the “soluble on expression in E. coli” value is reported as “soluble”.
With “MMEENKRVLLGMSGGTDSSVAAMRLLEAGYEVTGVTFRFYELNDSTEYLEDARHLAERLGIRHITYDAREIFRKQIIEYFVHEYMVGHTPVPCTLCNNYLKWPLLSKIADEMGIFYIATGHYVRKVKVDDTCYITYAADSDKDQTFFLWGLKQDILRRMLLPMGDITKVEARAFAAERGFQKVAVKRDSLGVCFCPMDYRSFLKMWLVSNCQPQVSVGQPQVSAGQTWSAEVRRGRFVDEKGDFIAWHEGYPFYTVGQRRGLGIHLNRAVFVKEIRPEKNEVVLASLQALEKTEMLLKDWNIVNRERLLGHADIIVKIRYRKQENHCTVTVTLDNFLHVQLHEPLTAIASGQAAAFYKDGLLLGGGIIVE” the “soluble on expression in E. coli” value was “not soluble”.
In the case of “MPELAISTDKVAFLIEKAREFDVKEGESDADSGSNGADDDMVDVLEDTGDDPVVQEISGFIAAMTEEEQIDLVALMRLGRGDGSIEEWDDLRREAAEGRNGRTARYLLGEPLLGDYLADGLDQFGLSWSDERTTPVV”, the “soluble on expression in E. coli” value is reported as “not soluble”.
For “EILPNFFKSARPIEGLRPYTVLETAGRQIYIQEGCYHCHSQLIRPFQAEVDRYGAYSLSGEYAYDRPFLWGSKRIGPDLHRVGDYRTTDWHEKHMFDPKSVVPHSIMPAYKHLFTKKSDFDTAYAEALTQKKVFGVPYDTENGVKLGSVEEAKKAYLEEAKKITADMKDKRVLEAIERGEVLEIVALIAYLNSLGNSRINANQNA”, the “soluble on expression in E. coli” value was “not soluble”.
In the case of “MSLAQTNPNSKGDQQKMINIAHRGASGHAPENTMAAFQKGFDMKVDYIEFDVHMTKDGELVLMHDLTVDRTTNGHGYVSDLTLDEIKQFDAGSWFHEDFVGEKVPTFEETLDVFRGKVGLLIELKSPERYPGMEEKVAEALKERKMDRSSNHKVIIQSFNHESMKKSKELLPHIPHGVLAGPSWANVTDEQLEEFSTYADYFNPNMTIVTPELVSRIHAVGMKIFPYTSRTQEQANRLFELKVDGIITDFPEHVYFHPVKNQEGHHHHHH”, the “soluble on expression in E. coli” value is reported as “not soluble”.
With “MTMNHDDRLRNRYEACRSGMQELDMLRAKHTLLIQNLRSRLPIIPGSLDDVQTREKKTRDVFLDRFSLQSVDSGISSQNTISSTRSSTPEDFKTSNRHSNIYENSSTTMNYSTFRKMSLESTHSSVSHSMQNDVEKTSFAPPVITSRSCHRGAWKTSPQRIRPKSMFDSTTSNTEYLFSKPPRHPIDLTKERRSAFTVLNQSSKRHSSIEPSLPSTLSQLSLNDEAKTPQKAEVIRWNKQKADAMFRANVVYVSSTEQPTKPAPLRFSPARSPPVRRALPIELKPTQHFAQPCKIRSPKLNTKTVFAAKPIAVRPSISPKVAQRSTWLQSQPL” the “soluble on expression in E. coli” value was “not soluble”.
With “MGSDKIHHHHHHMPIYVYWGEDDFAMEKAIAVLRDHVLDPNWISFNYTAFTPDQADAAIQALNQVMTPTFGAGGRLVWLINTTLYQHCPENVLAELVRSLSVIPENSFLLLSSRNKPDERLKSTKLLKQFATEFREFPLIPPWKTELLVQSVNQVAQTVGVKLTANTAQLLAESVGNDTRLLYNEIEKLRLYAYGSNKPLDVDTVTKLVRNTTQNSLQLAAAIRIGDTAKALTTLADMINASEPGLRIVATLIGQFRTWLWVKIMIESGERNQQAIAIAADIGNPKRIYFLQQEIKLLSVQQLISCLPLLLELEVSLKQGASEMSTFQTKVIELCQVCQGS” the “soluble on expression in E. coli” value was “not soluble”.
In the case of “SGCIQSITCKARIRRENIVVYDVCATIDQCPTRIEETSPIVLRYKTPYFKASARVVMPPIPRHETWVVGWIQACNQMEFFNTYSDLGMSSWELPDLREGRVKAISDSDGVSYPWYGNTTETVTLVGPTNKISRFSVSMNDNFYPSVTWAVPVSDSNVPLLTRIKRDQSFTTWLVAMNTTTKEKIILQTIKWRMRVDIEVDPLQLLGQRARLVGRTQQEQPRILSRMEPIPPNALVKPNANDAQVLMWRPKRGPPLVVIPPK”, the “soluble on expression in E. coli” value is reported as “soluble”.
For “MSLEIRRADKDDLDDFVRVYVESYRGLEDYAYTRKRDVKNYFKWLLSRDKDGVMVAEIDGEAVGFVACDTNWFSIFERKKVGEIHELFVLPEFRGEGIGAKLMEKALEYALERNRKVAELWVGRTNYRARRFYASQDLRRPESGGSGSEEGHHHHHH”, the “soluble on expression in E. coli” value was “not soluble”.
With “MGSDKIHHHHHHMTEKLVAEKISNRHPAAAPLATGQVPWAIKGELILNCNCTVFCPCVVSLGKHAPTEGYCQAWSGVRIDEGHYGDEDLSGLNVGLMLEIPGLMARGNWKAAAYIDERSSSAAYEGLVNIFSGKARGTTGLFAVLVSEFLGAERAPVIFETEGNARRLMVGKKIQGEIVPVPGKGGADQVVTNTEYWMGPDITVATATKGRVRAFGRVWDFDGRSAEICQIDWSGPR” the “soluble on expression in E. coli” value was “not soluble”.
In the case of “MRVLVSGGGTGGHIYPALALIREIKKLNPEARFLYIGTENGLESTIVPKAGIPFQSIVISGFKRKISLDNVKTVMRFLKGVQDSKRYIRRFNPDIVIGTGGYVCGPVVYAAAKLGIPTIVHEQNSVPGVTNKFLSRYVDKVAVCFEAAAEHFPQSKVVMTGNPRASEVMDQNGMKGKRSVGLSLPKKSVLIFGGSRGARPINDAFVEAIEQFGNKSYEILYVTGEVHYDKVMEAVKQKGNPNNVIIKPFIHNMPEVLTGVDLVVSRAGATTLAELTALGKPSVLIPSPYVTNNHQEKNARSVVDKGAAKMLLEKDLTAETLIRDIDEILLDAQTLQNMKLAAGQLGIPDAANKLYEVMNKLVKK”, the “soluble on expression in E. coli” value is reported as “not soluble”.
With “MFDYSAHPELLKGRVILVTGAARGIGAAAARAYAAHGASVVLLGRTEASLAEVSDQIKSAGQPQPLIIALNLENATAQQYRELAARVEHEFGRLDGLLHNASIIGPRTPLEQLPDEDFMQVMHVNVNATFMLTRALLPLLKRSEDASIAFTSSSVGRKGRANWGAYGVSKFATEGLMQTLADELEGVTAVRANSINPGATRTGMRAQAYPDENPLNNPAPEDIMPVYLYLMGPDSTGINGQALNAQ” the “soluble on expression in E. coli” value was “soluble”.
In the case of “MEQQSYTIIDETGAHARPATMLVQTASKFDSDIQLEYNGKKVNLKSIMGVMSLGVGKDAEITIYADGSDEADAIQAITDVLSKEGLTE”, the “soluble on expression in E. coli” value is reported as “soluble”.
In the case of “MHMVTYPCLTSRRFQLALIHRRVVDKRTSMHSRTASESTGARIHRPWCARHQVRPAWRCQYDKLHRVPFRSPELRLDSGPGYTTGSYRYMAGDPLEHHHHHH”, the “soluble on expression in E. coli” value is reported as “not soluble”.
In the case of “QAGRFIGQEISGRLSSRSMLAVQIDDLLKLAARFVGEERARQSFIRFAYRQGKGFNPNQNADGEWIAHTERLLAGVLGASSTRAVVKAAIEGREMQLEDVVRIADEASEVLQFNRALLQGAIENITQGISVVDQSL”, the “soluble on expression in E. coli” value is reported as “not soluble”.
For “MAKVCYFTGRKTSSGNNRSHAMNSTKRTVKPNLQKVRVLIDGKPKKVWVSTRALKSGKIERVLEHHHHHH”, the “soluble on expression in E. coli” value was “not soluble”.
